The values that follow come from PMC6255212, “Coupled molecular dynamics mediate long- and short-range epistasis between mutations that affect stability and aggregation kinetics” (Proceedings of the National Academy of Sciences of the …, 2018).

The chains are these.
B1: Escherichia coli transketolase (TK) (Escherichia coli K-12; A282P/H192P/I365L) (protein)
chain: SSRKELANAIRALSMDAVQKAKSGHPGAPMGMADIAEVLWRDFLKHNPQNPSWADRDRFVLSNGHGSMLIYSLLHLTGYDLPMEELKNFRQLHSKTPGHPEVGYTAGVETTTGPLGQGIANAVGMAIAEKTLAAQFNRPGHDIVDHYTYAFMGDGCMMEGISHEVCSLAGTLKLGKLIAFYDDNGISIDGPVEGWFTDDTAMRFEAYGWHVIRDIDGHDAASIKRAVEEARAVTDKPSLLMCKTIIGFGSPNKAGTHDSHGAPLGDAEIALTREQLGWKYPPFEIPSEIYAQWDAKEAGQAKESAWNEKFAAYAKAYPQEAAEFTRRMKGEMPSDFDAKAKEFIAKLQANPAKIASRKASQNALEAFGPLLPEFLGGSADLAPSNLTLWSGSKAINEDAAGNYIHYGVREFGMTAIANGISLHGGFLPYTSTFLMFVEYARNAVRMAALMKQRQVMVYTHDSIGLGEDGPTHQPVEQVASLRVTPNMSTWRPCDQVESAVAWKYGVERQDGPTALILSRQNLAQQERTEEQLANIARGGYVLKDCAGQPELIFIATGSEVELAVAAYEKLTAEGVKARVVSMPSTDAFDKQDAAYRESVLPKAVTARVAVEAGIADYWYKYVGLNGAIVGMTTFGESAPAELLFEEFGFTVDNVVAKAKELL
notes: homodimer of 70- to 74-kDa monomers; holo enzyme with ThDP and Mg2+
B2: Escherichia coli transketolase (TK) (Escherichia coli K-12; A282P/G506A/H192P/I365L) (protein)
chain: B1 chain with G505A
notes: as for B1
B3: Escherichia coli transketolase (TK) (Escherichia coli K-12; A282P/G506A/H192P) (protein)
chain: B1 chain with L364I, G505A
notes: as for B1

Where a chain is given by its changes, count along the chain named. Names may count otherwise.

Substrate in this series: O=CCO
The experiment in a line: steady-state enzyme kinetics. It is filed as biochemical, Escherichia coli. As to conditions: 50 mM Li-HPA (lithium beta-hydroxypyruvate, saturating), 4-80 mM glycolaldehyde.
For B1, the Km was 19.5(2.1) mM and the kcat was 68.9(2.6) s-1.
Take B2: the Km was 22.7(2.2) mM and the kcat is on record as 58.3(2.1) s-1.
In the case of B3, the Km was 20.2(1.5) mM and the kcat is recorded as 54.3(1.4) s-1.
